Test results taken from publication PMC4615246 (Nucleus, 2015).

T1: LacI-CFP-Nup153 (human, UniProt P49790 1-1475)
T1 sequence: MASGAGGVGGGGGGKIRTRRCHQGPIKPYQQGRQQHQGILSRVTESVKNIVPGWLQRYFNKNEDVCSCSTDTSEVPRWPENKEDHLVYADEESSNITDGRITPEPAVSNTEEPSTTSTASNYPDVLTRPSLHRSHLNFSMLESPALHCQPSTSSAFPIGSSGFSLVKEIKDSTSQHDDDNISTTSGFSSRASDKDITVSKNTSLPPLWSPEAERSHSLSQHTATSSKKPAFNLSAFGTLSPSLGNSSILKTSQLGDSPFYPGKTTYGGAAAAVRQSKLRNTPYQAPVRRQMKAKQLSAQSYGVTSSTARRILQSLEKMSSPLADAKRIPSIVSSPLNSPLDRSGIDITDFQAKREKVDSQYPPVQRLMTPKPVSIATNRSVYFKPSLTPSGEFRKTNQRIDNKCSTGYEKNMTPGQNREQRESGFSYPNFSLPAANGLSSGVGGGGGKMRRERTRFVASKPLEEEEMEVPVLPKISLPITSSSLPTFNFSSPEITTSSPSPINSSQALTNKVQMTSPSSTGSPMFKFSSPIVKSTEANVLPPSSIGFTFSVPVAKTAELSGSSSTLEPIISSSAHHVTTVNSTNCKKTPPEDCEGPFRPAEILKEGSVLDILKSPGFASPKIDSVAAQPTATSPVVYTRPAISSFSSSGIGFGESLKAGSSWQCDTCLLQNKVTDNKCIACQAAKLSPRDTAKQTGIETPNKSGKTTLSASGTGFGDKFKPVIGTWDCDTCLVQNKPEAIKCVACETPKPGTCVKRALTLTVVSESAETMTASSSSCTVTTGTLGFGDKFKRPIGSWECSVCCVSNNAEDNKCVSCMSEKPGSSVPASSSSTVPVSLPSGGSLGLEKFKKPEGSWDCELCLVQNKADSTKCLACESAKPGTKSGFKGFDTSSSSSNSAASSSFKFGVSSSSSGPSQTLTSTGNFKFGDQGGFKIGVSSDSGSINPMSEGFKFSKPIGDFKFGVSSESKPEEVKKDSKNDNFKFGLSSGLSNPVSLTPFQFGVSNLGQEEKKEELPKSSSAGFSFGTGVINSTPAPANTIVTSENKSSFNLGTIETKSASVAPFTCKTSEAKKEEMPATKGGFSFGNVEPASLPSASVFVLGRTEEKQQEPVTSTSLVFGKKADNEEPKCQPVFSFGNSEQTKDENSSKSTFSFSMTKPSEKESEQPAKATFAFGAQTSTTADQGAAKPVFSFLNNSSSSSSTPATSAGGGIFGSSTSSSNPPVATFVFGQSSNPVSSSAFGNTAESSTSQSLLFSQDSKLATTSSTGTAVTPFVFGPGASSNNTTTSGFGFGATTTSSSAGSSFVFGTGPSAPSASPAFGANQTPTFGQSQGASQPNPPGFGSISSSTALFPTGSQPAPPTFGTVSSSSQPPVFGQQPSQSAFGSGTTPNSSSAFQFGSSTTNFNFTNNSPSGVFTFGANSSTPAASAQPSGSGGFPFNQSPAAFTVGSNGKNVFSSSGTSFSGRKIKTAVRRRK

T2: LacI-CFP-Nup50 (human, UniProt Q9UKX7 1-468)
T2 sequence: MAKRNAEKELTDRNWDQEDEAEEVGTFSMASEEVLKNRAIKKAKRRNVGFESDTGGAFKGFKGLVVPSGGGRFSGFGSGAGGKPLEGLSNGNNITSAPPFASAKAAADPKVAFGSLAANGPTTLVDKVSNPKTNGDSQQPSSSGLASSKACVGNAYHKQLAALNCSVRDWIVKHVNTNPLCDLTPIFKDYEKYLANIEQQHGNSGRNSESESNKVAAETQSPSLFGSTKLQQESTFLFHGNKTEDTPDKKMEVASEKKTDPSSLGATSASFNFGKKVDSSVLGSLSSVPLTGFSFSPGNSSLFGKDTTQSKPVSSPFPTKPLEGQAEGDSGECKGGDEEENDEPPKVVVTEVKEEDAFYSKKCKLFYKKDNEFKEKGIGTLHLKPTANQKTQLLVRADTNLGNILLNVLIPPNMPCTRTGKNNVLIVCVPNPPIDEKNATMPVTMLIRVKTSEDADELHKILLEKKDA

T3: LacI-CFP-Nup107 (human, UniProt P57740 1-925)
T3 sequence: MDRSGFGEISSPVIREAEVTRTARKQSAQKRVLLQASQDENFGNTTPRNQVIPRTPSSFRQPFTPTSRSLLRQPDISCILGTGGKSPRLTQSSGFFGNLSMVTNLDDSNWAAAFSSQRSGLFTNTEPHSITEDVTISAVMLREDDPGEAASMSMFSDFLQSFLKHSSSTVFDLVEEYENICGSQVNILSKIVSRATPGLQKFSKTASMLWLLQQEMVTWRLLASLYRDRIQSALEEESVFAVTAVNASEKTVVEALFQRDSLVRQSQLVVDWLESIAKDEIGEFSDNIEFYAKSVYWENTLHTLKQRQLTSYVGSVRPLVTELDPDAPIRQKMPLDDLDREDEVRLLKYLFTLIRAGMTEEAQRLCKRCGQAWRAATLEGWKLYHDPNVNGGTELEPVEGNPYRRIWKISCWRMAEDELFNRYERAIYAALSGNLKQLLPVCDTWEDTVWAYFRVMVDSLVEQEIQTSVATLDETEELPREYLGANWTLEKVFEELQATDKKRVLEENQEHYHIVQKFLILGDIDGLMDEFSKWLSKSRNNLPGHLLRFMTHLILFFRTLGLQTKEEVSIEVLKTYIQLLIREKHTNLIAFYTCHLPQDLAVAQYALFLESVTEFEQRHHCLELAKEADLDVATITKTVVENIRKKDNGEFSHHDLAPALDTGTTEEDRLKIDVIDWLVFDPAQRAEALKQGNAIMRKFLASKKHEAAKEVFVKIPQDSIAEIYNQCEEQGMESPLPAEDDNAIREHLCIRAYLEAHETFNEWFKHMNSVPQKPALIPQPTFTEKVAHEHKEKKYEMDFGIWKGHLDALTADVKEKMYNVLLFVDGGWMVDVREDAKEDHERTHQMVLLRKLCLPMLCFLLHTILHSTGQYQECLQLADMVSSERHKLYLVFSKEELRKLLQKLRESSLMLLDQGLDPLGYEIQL

T4: LacI-CFP-Nup133 (human, UniProt Q8WUM0 1-1156)
T4 sequence: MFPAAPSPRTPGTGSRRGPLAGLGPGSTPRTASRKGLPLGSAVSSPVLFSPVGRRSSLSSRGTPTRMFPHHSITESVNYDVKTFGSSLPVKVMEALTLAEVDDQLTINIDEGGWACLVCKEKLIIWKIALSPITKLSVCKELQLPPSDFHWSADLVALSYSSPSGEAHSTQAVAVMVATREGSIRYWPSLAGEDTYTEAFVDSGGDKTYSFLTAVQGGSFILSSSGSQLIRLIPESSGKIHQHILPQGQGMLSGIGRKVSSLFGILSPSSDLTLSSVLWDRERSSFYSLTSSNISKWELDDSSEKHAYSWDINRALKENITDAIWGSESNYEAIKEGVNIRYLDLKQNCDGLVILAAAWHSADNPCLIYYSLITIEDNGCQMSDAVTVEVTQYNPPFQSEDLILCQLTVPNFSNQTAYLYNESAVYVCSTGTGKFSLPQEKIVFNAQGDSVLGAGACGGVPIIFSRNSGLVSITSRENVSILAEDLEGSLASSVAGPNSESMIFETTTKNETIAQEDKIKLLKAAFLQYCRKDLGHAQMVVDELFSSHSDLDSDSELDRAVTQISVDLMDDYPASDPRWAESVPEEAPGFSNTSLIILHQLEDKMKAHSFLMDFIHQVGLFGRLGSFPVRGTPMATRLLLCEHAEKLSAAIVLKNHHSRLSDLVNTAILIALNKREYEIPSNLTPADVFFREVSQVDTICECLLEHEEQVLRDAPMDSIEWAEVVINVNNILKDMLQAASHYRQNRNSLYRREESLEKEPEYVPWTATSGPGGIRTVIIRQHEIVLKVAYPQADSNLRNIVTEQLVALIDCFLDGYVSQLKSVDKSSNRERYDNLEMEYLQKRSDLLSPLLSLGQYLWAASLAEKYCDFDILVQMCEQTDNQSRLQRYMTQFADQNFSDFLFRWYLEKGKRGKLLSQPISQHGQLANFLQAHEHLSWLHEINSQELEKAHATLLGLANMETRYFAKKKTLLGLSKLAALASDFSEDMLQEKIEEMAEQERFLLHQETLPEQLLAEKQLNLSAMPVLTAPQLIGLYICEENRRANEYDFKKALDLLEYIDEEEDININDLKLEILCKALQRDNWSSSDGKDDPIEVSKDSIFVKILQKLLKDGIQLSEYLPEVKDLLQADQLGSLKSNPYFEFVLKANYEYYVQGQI

B1: Nup133 (endogenous) (natural protein)
chain: T4 sequence
B2: Nup98 (endogenous) (natural protein)
chain: MFNKSFGTPFGGGTGGFGTTSTFGQNTGFGTTSGGAFGTSAFGSSNNTGGLFGNSQTKPGGLFGTSSFSQPATSTSTGFGFGTSTGTANTLFGTASTGTSLFSSQNNAFAQNKPTGFGNFGTSTSSGGLFGTTNTTSNPFGSTSGSLFGPSSFTAAPTGTTIKFNPPTGTDTMVKAGVSTNISTKHQCITAMKEYESKSLEELRLEDYQANRKGPQNQVGAGTTTGLFGSSPATSSATGLFSSSTTNSGFAYGQNKTAFGTSTTGFGTNPGGLFGQQNQQTTSLFSKPFGQATTTQNTGFSFGNTSTIGQPSTNTMGLFGVTQASQPGGLFGTATNTSTGTAFGTGTGLFGQTNTGFGAVGSTLFGNNKLTTFGSSTTSAPSFGTTSGGLFGNKPTLTLGTNTNTSNFGFGTNTSGNSIFGSKPAPGTLGTGLGAGFGTALGAGQASLFGNNQPKIGGPLGTGAFGAPGFNTTTATLGFGAPQAPVALTDPNASAAQQAVLQQHINSLTYSPFGDSPLFRNPMSDPKKKEERLKPTNPAAQKALTTPTHYKLTPRPATRVRPKALQTTGTAKSHLFDGLDDDEPSLANGAFMPKKSIKKLVLKNLNNSNLFSPVNRDSENLASPSEYPENGERFSFLSKPVDENHQQDGDEDSLVSHFYTNPIAKPIPQTPESAGNKHSNSNSVDDTIVALNMRAALRNGLEGSSEETSFHDESLQDDREEIENNSYHMHPAGIILTKVGYYTIPSMDDLAKITNEKGECIVSDFTIGRKGYGSIYFEGDVNLTNLNLDDIVHIRRKEVVVYLDDNQKPPVGEGLNRKAEVTLDGVWPTDKTSRCLIKSPDRLADINYEGRLEAVSRKQGAQFKEYRPETGSWVFKVSHF

How the values were obtained:
Test in all cases: LacI/LacO array recruitment in cells
[1] = molecular target: LacI-CFP-Nup214 (human, UniProt P35658 1-2090)
LacI-CFP-Nup214, sequence (P35658 whole entry): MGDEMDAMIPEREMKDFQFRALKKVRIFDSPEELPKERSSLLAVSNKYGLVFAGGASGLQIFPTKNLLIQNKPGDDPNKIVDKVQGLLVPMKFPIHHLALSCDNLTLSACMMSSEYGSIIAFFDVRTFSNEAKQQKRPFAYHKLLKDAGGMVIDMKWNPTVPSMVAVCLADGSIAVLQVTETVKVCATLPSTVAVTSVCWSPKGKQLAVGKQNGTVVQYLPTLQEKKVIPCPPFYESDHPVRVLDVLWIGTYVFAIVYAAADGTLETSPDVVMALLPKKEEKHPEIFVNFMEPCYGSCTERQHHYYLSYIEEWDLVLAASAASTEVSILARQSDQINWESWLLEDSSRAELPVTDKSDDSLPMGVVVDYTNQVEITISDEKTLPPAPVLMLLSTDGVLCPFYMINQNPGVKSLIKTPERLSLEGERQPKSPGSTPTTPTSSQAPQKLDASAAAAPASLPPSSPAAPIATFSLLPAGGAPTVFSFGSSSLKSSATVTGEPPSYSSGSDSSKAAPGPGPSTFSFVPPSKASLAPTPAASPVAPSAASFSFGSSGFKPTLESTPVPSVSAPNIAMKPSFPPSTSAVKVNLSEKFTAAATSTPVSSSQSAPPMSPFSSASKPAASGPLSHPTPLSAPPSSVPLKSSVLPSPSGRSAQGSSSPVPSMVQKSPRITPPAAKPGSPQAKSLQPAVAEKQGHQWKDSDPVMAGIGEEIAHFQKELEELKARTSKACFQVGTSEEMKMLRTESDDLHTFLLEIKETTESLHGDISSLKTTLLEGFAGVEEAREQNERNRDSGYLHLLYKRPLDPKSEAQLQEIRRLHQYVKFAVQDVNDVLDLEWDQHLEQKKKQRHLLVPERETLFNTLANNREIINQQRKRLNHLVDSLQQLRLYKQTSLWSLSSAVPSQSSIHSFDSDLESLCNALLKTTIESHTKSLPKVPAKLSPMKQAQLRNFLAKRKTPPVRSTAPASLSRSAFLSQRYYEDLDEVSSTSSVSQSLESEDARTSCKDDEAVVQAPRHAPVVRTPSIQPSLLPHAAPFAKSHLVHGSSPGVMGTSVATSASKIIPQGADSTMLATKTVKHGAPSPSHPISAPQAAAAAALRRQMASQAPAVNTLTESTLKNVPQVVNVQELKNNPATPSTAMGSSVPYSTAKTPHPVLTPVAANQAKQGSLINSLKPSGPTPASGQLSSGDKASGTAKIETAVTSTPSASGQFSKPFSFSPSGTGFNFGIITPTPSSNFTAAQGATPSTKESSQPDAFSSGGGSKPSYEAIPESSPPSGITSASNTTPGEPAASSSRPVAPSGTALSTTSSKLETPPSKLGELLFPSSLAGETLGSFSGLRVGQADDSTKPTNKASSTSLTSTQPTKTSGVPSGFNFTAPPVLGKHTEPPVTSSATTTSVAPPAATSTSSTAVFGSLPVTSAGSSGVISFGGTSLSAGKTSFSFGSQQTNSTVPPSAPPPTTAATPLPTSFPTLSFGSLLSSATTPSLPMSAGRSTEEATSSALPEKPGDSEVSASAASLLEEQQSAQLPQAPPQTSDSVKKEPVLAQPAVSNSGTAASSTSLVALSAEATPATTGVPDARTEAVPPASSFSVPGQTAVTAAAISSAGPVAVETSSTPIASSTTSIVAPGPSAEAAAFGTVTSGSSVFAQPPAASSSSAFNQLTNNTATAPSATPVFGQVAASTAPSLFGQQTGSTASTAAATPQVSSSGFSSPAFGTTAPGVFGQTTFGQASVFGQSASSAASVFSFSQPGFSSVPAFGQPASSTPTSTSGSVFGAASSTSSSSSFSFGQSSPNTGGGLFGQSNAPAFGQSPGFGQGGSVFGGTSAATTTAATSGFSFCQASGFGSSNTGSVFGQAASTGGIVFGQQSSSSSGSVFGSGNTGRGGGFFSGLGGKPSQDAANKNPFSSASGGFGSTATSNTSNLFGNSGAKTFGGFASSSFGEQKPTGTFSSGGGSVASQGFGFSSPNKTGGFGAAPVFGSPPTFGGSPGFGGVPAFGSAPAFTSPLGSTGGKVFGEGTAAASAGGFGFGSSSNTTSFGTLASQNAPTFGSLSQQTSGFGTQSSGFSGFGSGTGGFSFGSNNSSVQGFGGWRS

[2] = molecular target: T1, LacI-CFP-Nup153
[3] = molecular target: T2, LacI-CFP-Nup50
[4] = molecular target: T3, LacI-CFP-Nup107
[5] = molecular target: T4, LacI-CFP-Nup133

Binder | percent of transfected cells showing colocalization [1] | percent of transfected cells showing colocalization [2] | percent of transfected cells showing colocalization [3] | percent of transfected cells showing colocalization [4] | percent of transfected cells showing colocalization [5]
B1 | 35% | 35% | 11% | 94% | 
B2 | 90% | 11% | 11% |  | 70%
